In general, stoichiometry N refers to a count of units in the complex or per binding partner.

The data set deals with the molecule itself. Kind of data set: SEC; Hi Load 16/60 Superdex 200 gel-filtration column, 50 mM Tris-HCl (pH 8.2), 50 mM NaCl, 1 mL/min; approximate molecular mass estimated from the elution of calibration proteins (44–669 kDa).

B1: PhStom (63–234) (domain or fragment, Pyrococcus horikoshii, UniProt O59180 63-234, looked up)
chain: VDLRTQVLDVPVQETITKDNVPVRVNAVVYFRVVDPVKAVTQVKNYIMATSQISQTTLRSVIGQAHLDELLSERDKLNMQLQRIIDEATDPWGIKVTAVEIKDVELPAGMQKAMARQAEAERERRARITLAEAERQAAEKLREAAEIISEHPMALQLRTLQTISDVAGDKSN
notes: stomatin PH1511 of Pyrococcus horikoshii, residues 63–234; Initial methionine added before residue 63; In the crystal (8GN9) only residues 64–169 are modelled; the authors consider that residues 170–234 (and so the tag) were degraded during crystallization; source: E. coli BL21 (DE3) Codon-Plus RIL, purified (heat 85 °C, Ni-NTA, Superdex 200 gel filtration)
As for B1, the “stoichiometry N” value is 2.

B2: PhStom (56–234) K59S (domain or fragment, Pyrococcus horikoshii, UniProt O59180 56-234, looked up)
chain: IFESAVIVDLRTQVLDVPVQETITKDNVPVRVNAVVYFRVVDPVKAVTQVKNYIMATSQISQTTLRSVIGQAHLDELLSERDKLNMQLQRIIDEATDPWGIKVTAVEIKDVELPAGMQKAMARQAEAERERRARITLAEAERQAAEKLREAAEIISEHPMALQLRTLQTISDVAGDKSN
notes: stomatin PH1511 of Pyrococcus horikoshii, residues 56–234 with K59S; Initial methionine added before residue 56; PDB 3BK6 is the parent (wild type) of the same limits; also called K59S mutant of PhStom (56–234); K59S mutant; source: E. coli BL21 (DE3) Codon-Plus RIL, purified (heat 85 °C, Ni-NTA, Superdex 200 gel filtration)
Consider B2, for which the “stoichiometry N” value is 2.

Values taken from paper PMC9663324, “Structural and mutational studies suggest key residues to determine whether stomatin SPFH domains form dimers or trimers” (Biochemistry and Biophysics Reports, 2022).
